PMC9851988

Target: His7-SUMO-Arc-C11^CFAS (not stated | E. coli)
Test: BLI

equilibrium response signal relative to His7-SUMO-Arc-C11^CFAS/R11A: 6 fold
Substance: anhydrotrypsin (enzyme)
